From the supplement of paper PMC10065799, “High-throughput profiling of sequence recognition by tyrosine kinases and SH2 domains using bacterial peptide display” (eLife, 2023)

Experiments:
AncSZ = experiment: phosphorylation enrichment, bacterial display (enrichment ratio); higher = better substrate or ligand; peptides without Tyr show the background
c-Src = experiment: as above
Jak2 = Jak2 (UniProt O60674); experiment: as above
Fer (mouse) = experiment: as above
Fyn = Fyn (UniProt P06241); experiment: as above
Chain of Fyn (P06241 whole entry, looked up): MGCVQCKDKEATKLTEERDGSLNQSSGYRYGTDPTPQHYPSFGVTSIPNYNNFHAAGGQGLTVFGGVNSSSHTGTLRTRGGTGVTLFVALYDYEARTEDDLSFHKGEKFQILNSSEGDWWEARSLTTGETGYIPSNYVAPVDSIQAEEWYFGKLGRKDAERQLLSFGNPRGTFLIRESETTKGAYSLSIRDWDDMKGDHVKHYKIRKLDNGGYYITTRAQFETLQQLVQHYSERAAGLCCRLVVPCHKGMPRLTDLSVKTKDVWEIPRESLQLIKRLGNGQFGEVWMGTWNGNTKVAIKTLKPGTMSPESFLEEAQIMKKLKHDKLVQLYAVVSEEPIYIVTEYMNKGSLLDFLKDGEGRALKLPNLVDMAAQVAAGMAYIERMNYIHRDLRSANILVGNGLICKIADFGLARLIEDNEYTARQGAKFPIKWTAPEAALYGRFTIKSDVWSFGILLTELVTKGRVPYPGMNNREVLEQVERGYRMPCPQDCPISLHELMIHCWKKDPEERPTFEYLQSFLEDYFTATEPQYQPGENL

EPHB2 = EPHB2 (UniProt P29323); experiment: as above
c-Abl (mouse) = experiment: as above
Fes = Fes (UniProt P07332); experiment: as above
Chain of Fes (P07332 whole entry, looked up): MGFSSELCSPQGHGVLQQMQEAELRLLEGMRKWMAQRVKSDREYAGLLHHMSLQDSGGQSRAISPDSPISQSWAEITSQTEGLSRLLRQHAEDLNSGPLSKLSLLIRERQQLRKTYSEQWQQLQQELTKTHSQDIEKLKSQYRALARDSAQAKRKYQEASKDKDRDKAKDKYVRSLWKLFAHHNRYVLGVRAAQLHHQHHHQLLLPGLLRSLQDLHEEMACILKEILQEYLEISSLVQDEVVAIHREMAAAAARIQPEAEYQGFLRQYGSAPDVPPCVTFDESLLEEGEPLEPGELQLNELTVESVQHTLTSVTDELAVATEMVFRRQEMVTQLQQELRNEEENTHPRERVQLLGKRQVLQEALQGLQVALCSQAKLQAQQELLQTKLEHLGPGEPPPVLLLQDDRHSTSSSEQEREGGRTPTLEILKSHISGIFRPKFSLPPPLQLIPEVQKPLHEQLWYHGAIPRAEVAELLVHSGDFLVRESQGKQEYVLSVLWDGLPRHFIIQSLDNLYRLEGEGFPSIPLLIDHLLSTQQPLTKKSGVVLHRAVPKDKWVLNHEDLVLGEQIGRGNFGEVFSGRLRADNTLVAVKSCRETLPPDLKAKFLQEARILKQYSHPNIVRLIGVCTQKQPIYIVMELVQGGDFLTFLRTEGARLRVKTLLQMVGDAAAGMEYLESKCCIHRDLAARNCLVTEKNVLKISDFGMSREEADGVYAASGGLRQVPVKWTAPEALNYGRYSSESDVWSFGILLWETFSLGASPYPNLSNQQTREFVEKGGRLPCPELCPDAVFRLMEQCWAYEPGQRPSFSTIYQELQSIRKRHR

FGFR3 = FGFR3 (UniProt P22607); experiment: as above
MERTK = MERTK (UniProt Q12866); experiment: as above
Chain of MERTK (Q12866 whole entry, looked up): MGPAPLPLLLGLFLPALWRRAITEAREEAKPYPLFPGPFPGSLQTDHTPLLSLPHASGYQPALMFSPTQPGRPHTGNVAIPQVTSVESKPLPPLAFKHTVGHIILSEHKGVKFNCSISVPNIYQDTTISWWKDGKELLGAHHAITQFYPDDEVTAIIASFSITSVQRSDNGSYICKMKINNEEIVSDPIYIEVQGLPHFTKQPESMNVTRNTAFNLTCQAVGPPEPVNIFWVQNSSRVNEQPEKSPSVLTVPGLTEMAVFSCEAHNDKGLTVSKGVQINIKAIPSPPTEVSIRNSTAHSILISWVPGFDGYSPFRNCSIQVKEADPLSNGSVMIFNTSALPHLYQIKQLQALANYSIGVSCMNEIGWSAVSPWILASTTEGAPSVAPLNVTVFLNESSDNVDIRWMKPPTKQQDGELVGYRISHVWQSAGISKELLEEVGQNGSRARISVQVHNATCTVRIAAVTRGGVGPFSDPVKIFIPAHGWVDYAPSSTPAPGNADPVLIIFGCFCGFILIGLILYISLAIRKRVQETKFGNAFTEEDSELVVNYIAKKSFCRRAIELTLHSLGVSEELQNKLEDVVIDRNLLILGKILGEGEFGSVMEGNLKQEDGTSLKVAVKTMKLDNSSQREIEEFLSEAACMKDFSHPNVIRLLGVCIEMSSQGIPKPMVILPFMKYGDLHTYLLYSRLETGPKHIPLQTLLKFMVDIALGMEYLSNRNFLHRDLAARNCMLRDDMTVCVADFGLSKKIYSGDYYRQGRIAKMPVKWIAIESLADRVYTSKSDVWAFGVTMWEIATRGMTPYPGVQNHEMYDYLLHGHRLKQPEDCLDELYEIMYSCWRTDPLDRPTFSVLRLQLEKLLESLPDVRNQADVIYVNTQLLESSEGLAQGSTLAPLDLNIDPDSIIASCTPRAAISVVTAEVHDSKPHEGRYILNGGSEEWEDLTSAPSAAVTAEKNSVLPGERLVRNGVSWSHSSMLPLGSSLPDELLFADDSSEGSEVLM

Hck = Hck (UniProt P08631); experiment: as above
Chain of Hck (P08631 whole entry, looked up): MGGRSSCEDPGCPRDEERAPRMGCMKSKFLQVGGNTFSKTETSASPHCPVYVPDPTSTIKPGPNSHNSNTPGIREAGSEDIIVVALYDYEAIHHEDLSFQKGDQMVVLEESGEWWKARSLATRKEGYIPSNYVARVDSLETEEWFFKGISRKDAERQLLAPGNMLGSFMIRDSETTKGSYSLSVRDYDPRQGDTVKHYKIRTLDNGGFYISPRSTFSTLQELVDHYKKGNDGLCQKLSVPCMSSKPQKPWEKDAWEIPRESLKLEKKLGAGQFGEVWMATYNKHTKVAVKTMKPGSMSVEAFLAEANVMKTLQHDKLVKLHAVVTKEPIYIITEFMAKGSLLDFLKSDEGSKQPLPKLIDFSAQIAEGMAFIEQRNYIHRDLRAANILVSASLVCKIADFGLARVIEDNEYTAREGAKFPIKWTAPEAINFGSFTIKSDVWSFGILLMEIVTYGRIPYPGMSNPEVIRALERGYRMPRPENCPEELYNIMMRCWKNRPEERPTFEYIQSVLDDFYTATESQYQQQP

EPHB1 = EPHB1 (UniProt P54762); experiment: as above
Chain of EPHB1 (P54762 whole entry, looked up): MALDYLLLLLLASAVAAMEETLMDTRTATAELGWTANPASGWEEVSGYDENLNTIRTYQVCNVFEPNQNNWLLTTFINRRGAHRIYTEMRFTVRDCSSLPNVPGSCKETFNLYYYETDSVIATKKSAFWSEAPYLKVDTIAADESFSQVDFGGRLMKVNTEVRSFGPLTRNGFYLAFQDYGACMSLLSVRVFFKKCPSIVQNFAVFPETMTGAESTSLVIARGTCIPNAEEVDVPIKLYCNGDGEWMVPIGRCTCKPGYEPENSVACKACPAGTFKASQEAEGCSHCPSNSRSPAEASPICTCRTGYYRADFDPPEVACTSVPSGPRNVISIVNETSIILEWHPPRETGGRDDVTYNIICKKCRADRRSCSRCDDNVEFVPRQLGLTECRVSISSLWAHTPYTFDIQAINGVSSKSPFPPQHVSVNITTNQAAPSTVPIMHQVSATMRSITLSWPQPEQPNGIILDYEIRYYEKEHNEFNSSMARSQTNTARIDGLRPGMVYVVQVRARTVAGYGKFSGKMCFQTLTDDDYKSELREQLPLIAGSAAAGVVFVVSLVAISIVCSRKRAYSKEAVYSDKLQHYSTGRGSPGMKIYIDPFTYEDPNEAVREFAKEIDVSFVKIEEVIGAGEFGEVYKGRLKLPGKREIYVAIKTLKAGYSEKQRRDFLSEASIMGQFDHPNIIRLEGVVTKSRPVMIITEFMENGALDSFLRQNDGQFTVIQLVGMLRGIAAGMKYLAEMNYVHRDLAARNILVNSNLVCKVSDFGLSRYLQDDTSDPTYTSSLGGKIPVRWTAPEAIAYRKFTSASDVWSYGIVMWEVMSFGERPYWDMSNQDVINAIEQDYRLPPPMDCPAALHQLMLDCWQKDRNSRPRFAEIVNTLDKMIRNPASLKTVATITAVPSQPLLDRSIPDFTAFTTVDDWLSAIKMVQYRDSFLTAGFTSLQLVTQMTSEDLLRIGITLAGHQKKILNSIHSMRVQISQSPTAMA

FGFR1 = FGFR1 (UniProt P11362); experiment: as above
Chain of FGFR1 (P11362 whole entry, looked up): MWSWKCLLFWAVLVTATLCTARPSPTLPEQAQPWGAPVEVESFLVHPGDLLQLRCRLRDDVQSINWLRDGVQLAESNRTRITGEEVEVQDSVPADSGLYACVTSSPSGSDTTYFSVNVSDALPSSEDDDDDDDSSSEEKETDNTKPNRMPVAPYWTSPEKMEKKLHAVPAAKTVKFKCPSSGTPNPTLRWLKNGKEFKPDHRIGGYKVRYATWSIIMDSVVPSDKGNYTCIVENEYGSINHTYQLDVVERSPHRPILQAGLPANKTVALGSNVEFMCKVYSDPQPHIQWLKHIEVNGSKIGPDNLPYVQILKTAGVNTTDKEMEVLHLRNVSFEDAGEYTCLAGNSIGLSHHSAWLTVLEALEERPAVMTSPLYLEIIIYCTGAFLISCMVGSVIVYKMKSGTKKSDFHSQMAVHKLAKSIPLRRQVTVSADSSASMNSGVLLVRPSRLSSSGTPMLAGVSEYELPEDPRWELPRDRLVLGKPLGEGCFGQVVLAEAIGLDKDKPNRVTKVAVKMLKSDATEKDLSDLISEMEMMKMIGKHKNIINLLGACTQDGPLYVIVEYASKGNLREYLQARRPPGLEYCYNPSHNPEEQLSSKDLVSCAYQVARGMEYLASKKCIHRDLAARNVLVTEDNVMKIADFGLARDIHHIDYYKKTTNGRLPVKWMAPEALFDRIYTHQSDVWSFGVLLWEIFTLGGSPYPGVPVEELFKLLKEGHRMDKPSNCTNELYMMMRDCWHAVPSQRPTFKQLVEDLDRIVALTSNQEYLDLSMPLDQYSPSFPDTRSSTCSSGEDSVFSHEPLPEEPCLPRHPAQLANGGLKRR

c-Src SH2 = experiment: SH2 binding enrichment of the phosphorylated peptide, bacterial display (enrichment ratio); higher = better substrate or ligand; peptides without Tyr show the background
Grb2 SH2 = Grb2 SH2 (UniProt P62993); experiment: as above
Chain of Grb2 SH2 (P62993 whole entry, looked up): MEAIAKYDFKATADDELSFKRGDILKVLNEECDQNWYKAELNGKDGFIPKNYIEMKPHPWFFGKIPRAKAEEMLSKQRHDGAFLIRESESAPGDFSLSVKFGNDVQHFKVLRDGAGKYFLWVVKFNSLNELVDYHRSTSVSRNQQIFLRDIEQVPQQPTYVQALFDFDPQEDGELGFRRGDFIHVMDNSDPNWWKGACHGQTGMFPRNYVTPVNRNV

SHP2-C SH2 = experiment: as above
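For SH2 binding enrichment of the phosphorylated peptide, bacterial display in this document: peptide library displayed on the E. coli surface as eCPX fusions, selected cells deep-sequenced, score is each peptide's frequency after selection divided by its frequency in the input.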
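For phosphorylation enrichment, bacterial display in this document: 11-residue human phosphosite peptides and single-mutation variants displayed on the E. coli surface, counted by deep sequencing, each peptide's frequency after selection divided by its frequency in the unselected input library; frequency after pTyr selection over input frequency; kinase dosed for 20-30% of maximal phosphorylation in three min.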

Sequence | phosphorylation enrichment (AncSZ) | phosphorylation enrichment (c-Src) | phosphorylation enrichment (Jak2) | phosphorylation enrichment (Fer (mouse)) | phosphorylation enrichment (Fyn) | phosphorylation enrichment (EPHB2) | phosphorylation enrichment (c-Abl (mouse)) | phosphorylation enrichment (Fes) | phosphorylation enrichment (FGFR3) | phosphorylation enrichment (MERTK) | phosphorylation enrichment (Hck) | phosphorylation enrichment (EPHB1) | phosphorylation enrichment (FGFR1) | SH2 binding enrichment (c-Src SH2) | SH2 binding enrichment (Grb2 SH2) | SH2 binding enrichment (SHP2-C SH2)
STLEVYSCHPP [IL21R_Y317] | 1.33 | 1.65 | 1.38 | 0.904 | 1.25 | 1.34 | 1.31 | 1.56 | 1.04 | 0.774 | 1.27 | 1.04 | 0.698 | 0.451 | 0.71 | 0.559
SVESPYGSVTF [NDRG2_Y47_T45S] | 0.662 | 5.95 | 0.572 | 9.44 | 7.99 | 0.862 | 0.57 | 0.696 | 0.496 | 0.525 | 5.03 | 0.501 | 0.456 | 0.376 | 0.689 | 0.688
SVMAEYGLFGA [VSX2_Y219_YF] | 0.737 | 6.17 | 0.679 | 0.424 | 7.22 | 0.596 | 0.594 | 0.774 | 0.553 | 0.475 | 2.94 | 0.477 | 0.488 | 0.471 | 0.86 | 0.719
SVVMPYEPPEV [TP53_Y220_V218M] | 1.27 | 0.482 | 0.897 | 0.549 | 0.56 | 0.595 | 0.66 | 1.12 | 0.674 | 0.492 | 0.481 | 0.559 | 0.559 | 1.06 | 0.877 | 0.738
SVVVPDEPPEV [TP53_Y220_Y220D] | 1.33 | 0.522 | 1.19 | 0.647 | 0.582 | 0.665 | 0.782 | 1.39 | 0.687 | 0.586 | 0.567 | 0.706 | 0.724 | 0.576 | 0.755 | 0.794
SVVVPSEPPEV [TP53_Y220_Y220S] | 0.971 | 0.449 | 0.851 | 0.426 | 0.511 | 0.642 | 0.74 | 1.12 | 0.755 | 0.431 | 0.484 | 0.598 | 0.503 | 0.577 | 1.03 | 0.958
SVVVPYAPPEV [TP53_Y220_E221A] | 0.756 | 0.427 | 0.719 | 0.474 | 0.422 | 0.499 | 0.73 | 0.814 | 0.595 | 0.423 | 0.43 | 0.508 | 0.589 | 0.463 | 0.766 | 0.602
SVVVPYEPPEV [TP53_Y220] | 1.25 | 0.459 | 1 | 0.556 | 0.502 | 0.645 | 0.798 | 1.16 | 0.748 | 0.531 | 0.55 | 0.532 | 0.548 | 0.888 | 1.01 | 1.11
SVVVPYEPSEV [TP53_Y220_P223S] | 1.21 | 0.509 | 1.02 | 0.685 | 0.554 | 0.515 | 0.619 | 1.23 | 0.846 | 0.503 | 0.6 | 0.632 | 0.52 | 0.506 | 0.837 | 0.645
SVVVPYKPPEV [TP53_Y220_E221K] | 0.915 | 0.596 | 0.761 | 0.471 | 0.458 | 0.461 | 0.584 | 0.792 | 0.448 | 0.517 | 0.421 | 0.501 | 0.477 | 0.546 | 0.795 | 0.599
SVVVRYEPPEV [TP53_Y220_P219R] | 0.892 | 0.386 | 0.705 | 0.466 | 0.371 | 0.503 | 0.747 | 0.902 | 0.517 | 0.425 | 0.42 | 0.445 | 0.409 | 0.882 | 0.967 | 0.775
SWDKRYCEAGF [ITGA2B_Y197] | 0.892 | 0.426 | 0.888 | 0.531 | 0.509 | 0.692 | 0.687 | 1.28 | 0.561 | 0.455 | 0.648 | 0.867 | 0.506 | 0.812 | 1.07 | 0.569
SYNNKYGMVAQ [APOB_Y276_K273N] | 0.623 | 0.467 | 0.607 | 0.411 | 0.428 | 0.474 | 0.61 | 0.632 | 0.471 | 0.378 | 0.476 | 0.381 | 0.41 | 0.49 | 0.713 | 0.555
SYTDPYAQPSL [KMT2D_Y2378_P2382S] | 1.18 | 0.576 | 0.718 | 0.479 | 0.611 | 0.568 | 0.82 | 1 | 1.89 | 0.532 | 0.567 | 0.583 | 3.11 | 2.6 | 0.823 | 0.775
TAGFSYEKWEI [TEC_Y360] | 1.52 | 0.463 | 1 | 1.46 | 0.503 | 0.577 | 0.694 | 1.21 | 0.72 | 0.549 | 0.536 | 0.472 | 0.533 | 0.484 | 0.706 | 0.701
TAPFNYSFIFK [RAB14_Y8_YF] | 0.975 | 0.377 | 0.757 | 0.376 | 0.493 | 0.692 | 0.657 | 1.1 | 0.771 | 2.27 | 0.56 | 2 | 0.405 | 0.724 | 0.581 | 0.722
